Test results: paper PMC2149339
Values joined by “and” are separate entries in the source; they are usually repeats but may differ in a detail not shown here. Equal entries are not always repeated.

Experiments:
[1] = target: COOH-terminal region of dystrophin construct (C2979) (UniProt P11532); assay: co-IP
[2] = target: COOH-terminal region of utrophin construct (TDRII) (UniProt P46939); assay: co-IP
UniProt P46939, sequence (P46939 2753-3432): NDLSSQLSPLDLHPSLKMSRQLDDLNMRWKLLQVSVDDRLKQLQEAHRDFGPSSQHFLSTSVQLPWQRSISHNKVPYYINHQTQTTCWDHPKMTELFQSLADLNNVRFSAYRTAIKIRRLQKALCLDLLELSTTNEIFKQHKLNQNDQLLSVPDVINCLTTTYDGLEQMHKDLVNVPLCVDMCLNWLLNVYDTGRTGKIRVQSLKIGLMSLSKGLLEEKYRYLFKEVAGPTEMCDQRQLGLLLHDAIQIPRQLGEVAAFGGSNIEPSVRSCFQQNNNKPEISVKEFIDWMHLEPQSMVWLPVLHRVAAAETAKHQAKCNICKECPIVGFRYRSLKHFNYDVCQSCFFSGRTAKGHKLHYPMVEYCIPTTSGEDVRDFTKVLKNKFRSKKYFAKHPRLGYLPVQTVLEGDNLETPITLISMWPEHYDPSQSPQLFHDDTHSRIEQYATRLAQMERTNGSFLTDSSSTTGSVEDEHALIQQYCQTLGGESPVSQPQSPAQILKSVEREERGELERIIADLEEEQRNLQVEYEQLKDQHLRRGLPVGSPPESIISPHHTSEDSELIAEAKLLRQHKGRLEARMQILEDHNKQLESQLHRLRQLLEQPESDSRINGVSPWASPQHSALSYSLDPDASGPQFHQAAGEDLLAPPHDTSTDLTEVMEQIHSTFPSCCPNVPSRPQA

UniProt P11532, sequence (P11532 2980-3685): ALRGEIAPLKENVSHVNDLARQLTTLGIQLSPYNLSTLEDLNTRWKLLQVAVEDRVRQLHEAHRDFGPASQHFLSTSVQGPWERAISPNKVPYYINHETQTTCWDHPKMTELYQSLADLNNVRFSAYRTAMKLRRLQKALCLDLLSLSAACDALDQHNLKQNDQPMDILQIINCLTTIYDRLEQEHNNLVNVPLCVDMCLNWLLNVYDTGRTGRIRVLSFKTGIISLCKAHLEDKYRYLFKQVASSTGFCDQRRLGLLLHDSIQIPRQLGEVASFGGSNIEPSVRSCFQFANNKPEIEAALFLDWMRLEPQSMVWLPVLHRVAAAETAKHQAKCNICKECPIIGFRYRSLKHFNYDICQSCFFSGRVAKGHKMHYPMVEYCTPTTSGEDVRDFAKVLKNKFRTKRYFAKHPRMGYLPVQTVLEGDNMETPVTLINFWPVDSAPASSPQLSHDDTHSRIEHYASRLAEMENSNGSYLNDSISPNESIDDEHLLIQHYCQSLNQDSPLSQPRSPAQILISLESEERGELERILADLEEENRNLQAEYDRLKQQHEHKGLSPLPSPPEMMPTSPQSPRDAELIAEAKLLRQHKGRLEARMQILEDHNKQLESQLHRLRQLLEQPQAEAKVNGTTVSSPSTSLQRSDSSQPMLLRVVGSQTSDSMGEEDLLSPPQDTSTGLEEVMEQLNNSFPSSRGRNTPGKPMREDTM

full-length α-dystrobrevin-1 construct (exons 1-21) (natural protein)
fold (+Ab over control without antibody), average of five experiments [1]: 3 fold | fold (+Ab over control without antibody) [2]: 3.1 fold and 4 fold and 3 fold | fold (+Ab over control without antibody), average of five experiments [2]: 3.3 fold

α-dystrobrevin-2 construct (exons 1-17B) (natural protein)
fold (+Ab over control without antibody) [1]: 3.7 fold and 4.2 fold and 3.3 fold | fold (+Ab over control without antibody) [2]: 1.3 fold and 0.9 fold and 1 fold | fold (+Ab over control without antibody), average of five experiments [2]: 1 fold
